From patent US20250352661A1 (MYTHIC THERAPEUTICS, published 2025) come the findings set out here.

B1: MYT8419 (antibody, V domains shown)
VH: EVQLVESGGGLVQPGGSLRLSCTASGLDFRRTNYICWVRQAPGKGLEWVGCIYIADVVHYYASWAKGRFTFSRDTSKNTVYLQMNSLRAEDTAVYYCARGADGGFVYGMDLWGQGTLVTVSS
VL: EIVMTQSPSTLSASVGDRVIITCQASQSIHNYLSWYQQKPGKAPKRLIYSASTLPSGVPSRFSGSGSGAEFTLTISSLQPDDFATYYCQNNHWLAGYGHPFGQGTKLTVL
notes: hu15G7 VL G30H, Y92H; human Fc
B2: MYT8424 (antibody, V domains shown)
VH: EVQLVESGGGLVQPGGSLRLSCTASGLDFRRTNYICWVRQAPGKGLEWVGCIYIADVVHYYASWAKGRFTFSRDTSKNTVYLQMNSLRAEDTAVYYCARGADGGFVYGMDLWGQGTLVTVSS
VL: EIVMTQSPSTLSASVGDRVIITCQASQSIGNHLSWYQQKPGKAPKRLIYSASTLPSGVPSRFSGSGSGAEFTLTISSLQPDDFATYYCQNNYWLAHYGHPFGQGTKLTVL
notes: hu15G7 VL Y32H, G96H; human Fc
B3: MYT8423 (antibody, V domains shown)
VH: EVQLVESGGGLVQPGGSLRLSCTASGLDFRRTNYICWVRQAPGKGLEWVGCIYIADVVHYYASWAKGRFTFSRDTSKNTVYLQMNSLRAEDTAVYYCARGADGGFVYGMDLWGQGTLVTVSS
VL: EIVMTQSPSTLSASVGDRVIITCQASQSIGNHLSWYQQKPGKAPKRLIYSASTLPSGVPSRFSGSGSGAEFTLTISSLQPDDFATYYCQNNYHLAGYGHPFGQGTKLTVL
notes: hu15G7 VL Y32H, W93H; human Fc
B4: MYT8430 (antibody, V domains shown)
VH: EVQLVESGGGLVQPGGSLRLSCTASGLDFRRTNYICWVRQAPGKGLEWVGCIYIADVVHYYASWAKGRFTFSRDTSKNTVYLQMNSLRAEDTAVYYCARGADGGFVYGMDLWGQGTLVTVSS
VL: EIVMTQSPSTLSASVGDRVIITCQASQSIHNHLSWYQQKPGKAPKRLIYSASTLPSGVPSRFSGSGSGAEFTLTISSLQPDDFATYYCQNNYWLAHYGHPFGQGTKLTVL
notes: hu15G7 VL G30H, Y32H, G96H; human Fc
B5: MYT8426 (antibody, V domains shown)
VH: EVQLVESGGGLVQPGGSLRLSCTASGLDFRRTNYICWVRQAPGKGLEWVGCIYIADVVHYYASWAKGRFTFSRDTSKNTVYLQMNSLRAEDTAVYYCARGADGGFVYGMDLWGQGTLVTVSS
VL: EIVMTQSPSTLSASVGDRVIITCQASQSIGNYLSWYQQKPGKAPKRLIYSASTLPSGVPSRFSGSGSGAEFTLTISSLQPDDFATYYCQNNHWLAHYGHPFGQGTKLTVL
notes: hu15G7 VL Y92H, G96H; human Fc
B6: MYT8429 (antibody, V domains shown)
VH: EVQLVESGGGLVQPGGSLRLSCTASGLDFRRTNYICWVRQAPGKGLEWVGCIYIADVVHYYASWAKGRFTFSRDTSKNTVYLQMNSLRAEDTAVYYCARGADGGFVYGMDLWGQGTLVTVSS
VL: EIVMTQSPSTLSASVGDRVIITCQASQSIHNHLSWYQQKPGKAPKRLIYSASTLPSGVPSRFSGSGSGAEFTLTISSLQPDDFATYYCQNNYHLAGYGHPFGQGTKLTVL
notes: hu15G7 VL G30H, Y32H, W93H; human Fc
B7: MYT8427 (antibody, V domains shown)
VH: EVQLVESGGGLVQPGGSLRLSCTASGLDFRRTNYICWVRQAPGKGLEWVGCIYIADVVHYYASWAKGRFTFSRDTSKNTVYLQMNSLRAEDTAVYYCARGADGGFVYGMDLWGQGTLVTVSS
VL: EIVMTQSPSTLSASVGDRVIITCQASQSIGNYLSWYQQKPGKAPKRLIYSASTLPSGVPSRFSGSGSGAEFTLTISSLQPDDFATYYCQNNYHLAHYGHPFGQGTKLTVL
notes: hu15G7 VL W93H, G96H; human Fc
B8: MYT8434 (antibody, V domains shown)
VH: EVQLVESGGGLVQPGGSLRLSCTASGLDFRRTNYICWVRQAPGKGLEWVGCIYIADVVHYYASWAKGRFTFSRDTSKNTVYLQMNSLRAEDTAVYYCARGADGGFVYGMDLWGQGTLVTVSS
VL: EIVMTQSPSTLSASVGDRVIITCQASQSIGNHLSWYQQKPGKAPKRLIYSASTLPSGVPSRFSGSGSGAEFTLTISSLQPDDFATYYCQNNHHLAGYGHPFGQGTKLTVL
notes: hu15G7 VL Y32H, Y92H, W93H; human Fc
B9: MYT8422 (antibody, V domains shown)
VH: EVQLVESGGGLVQPGGSLRLSCTASGLDFRRTNYICWVRQAPGKGLEWVGCIYIADVVHYYASWAKGRFTFSRDTSKNTVYLQMNSLRAEDTAVYYCARGADGGFVYGMDLWGQGTLVTVSS
VL: EIVMTQSPSTLSASVGDRVIITCQASQSIGNHLSWYQQKPGKAPKRLIYSASTLPSGVPSRFSGSGSGAEFTLTISSLQPDDFATYYCQNNHWLAGYGHPFGQGTKLTVL
notes: hu15G7 VL Y32H, Y92H; human Fc
B10: MYT8436 (antibody, V domains shown)
VH: EVQLVESGGGLVQPGGSLRLSCTASGLDFRRTNYICWVRQAPGKGLEWVGCIYIADVVHYYASWAKGRFTFSRDTSKNTVYLQMNSLRAEDTAVYYCARGADGGFVYGMDLWGQGTLVTVSS
VL: EIVMTQSPSTLSASVGDRVIITCQASQSIGNHLSWYQQKPGKAPKRLIYSASTLPSGVPSRFSGSGSGAEFTLTISSLQPDDFATYYCQNNYHLAHYGHPFGQGTKLTVL
notes: hu15G7 VL Y32H, W93H, G96H; human Fc
B11: MYT8435 (antibody, V domains shown)
VH: EVQLVESGGGLVQPGGSLRLSCTASGLDFRRTNYICWVRQAPGKGLEWVGCIYIADVVHYYASWAKGRFTFSRDTSKNTVYLQMNSLRAEDTAVYYCARGADGGFVYGMDLWGQGTLVTVSS
VL: EIVMTQSPSTLSASVGDRVIITCQASQSIGNHLSWYQQKPGKAPKRLIYSASTLPSGVPSRFSGSGSGAEFTLTISSLQPDDFATYYCQNNHWLAHYGHPFGQGTKLTVL
notes: hu15G7 VL Y32H, Y92H, G96H; human Fc
B12: MYT8421 (antibody, V domains shown)
VH: EVQLVESGGGLVQPGGSLRLSCTASGLDFRRTNYICWVRQAPGKGLEWVGCIYIADVVHYYASWAKGRFTFSRDTSKNTVYLQMNSLRAEDTAVYYCARGADGGFVYGMDLWGQGTLVTVSS
VL: EIVMTQSPSTLSASVGDRVIITCQASQSIHNYLSWYQQKPGKAPKRLIYSASTLPSGVPSRFSGSGSGAEFTLTISSLQPDDFATYYCQNNYWLAHYGHPFGQGTKLTVL
notes: hu15G7 VL G30H, G96H; human Fc
B13: MYT8431 (antibody, V domains shown)
VH: EVQLVESGGGLVQPGGSLRLSCTASGLDFRRTNYICWVRQAPGKGLEWVGCIYIADVVHYYASWAKGRFTFSRDTSKNTVYLQMNSLRAEDTAVYYCARGADGGFVYGMDLWGQGTLVTVSS
VL: EIVMTQSPSTLSASVGDRVIITCQASQSIHNYLSWYQQKPGKAPKRLIYSASTLPSGVPSRFSGSGSGAEFTLTISSLQPDDFATYYCQNNHHLAGYGHPFGQGTKLTVL
notes: hu15G7 VL G30H, Y92H, W93H; human Fc
B14: MYT8433 (antibody, V domains shown)
VH: EVQLVESGGGLVQPGGSLRLSCTASGLDFRRTNYICWVRQAPGKGLEWVGCIYIADVVHYYASWAKGRFTFSRDTSKNTVYLQMNSLRAEDTAVYYCARGADGGFVYGMDLWGQGTLVTVSS
VL: EIVMTQSPSTLSASVGDRVIITCQASQSIHNYLSWYQQKPGKAPKRLIYSASTLPSGVPSRFSGSGSGAEFTLTISSLQPDDFATYYCQNNYHLAHYGHPFGQGTKLTVL
notes: hu15G7 VL G30H, W93H, G96H; human Fc
B15: MYT8425 (antibody, V domains shown)
VH: EVQLVESGGGLVQPGGSLRLSCTASGLDFRRTNYICWVRQAPGKGLEWVGCIYIADVVHYYASWAKGRFTFSRDTSKNTVYLQMNSLRAEDTAVYYCARGADGGFVYGMDLWGQGTLVTVSS
VL: EIVMTQSPSTLSASVGDRVIITCQASQSIGNYLSWYQQKPGKAPKRLIYSASTLPSGVPSRFSGSGSGAEFTLTISSLQPDDFATYYCQNNHHLAGYGHPFGQGTKLTVL
notes: hu15G7 VL Y92H, W93H; human Fc
B16: MYT8420 (antibody, V domains shown)
VH: EVQLVESGGGLVQPGGSLRLSCTASGLDFRRTNYICWVRQAPGKGLEWVGCIYIADVVHYYASWAKGRFTFSRDTSKNTVYLQMNSLRAEDTAVYYCARGADGGFVYGMDLWGQGTLVTVSS
VL: EIVMTQSPSTLSASVGDRVIITCQASQSIHNYLSWYQQKPGKAPKRLIYSASTLPSGVPSRFSGSGSGAEFTLTISSLQPDDFATYYCQNNYHLAGYGHPFGQGTKLTVL
notes: hu15G7 VL G30H, W93H; human Fc

For the assay, the target named is T1, Human LRRC15 Protein, His Tag (Acro Biosystems) (human, UniProt Q8TF66 22-538, limits assumed).
T1 construct: Bought protein with His tag
T1 sequence (looked up): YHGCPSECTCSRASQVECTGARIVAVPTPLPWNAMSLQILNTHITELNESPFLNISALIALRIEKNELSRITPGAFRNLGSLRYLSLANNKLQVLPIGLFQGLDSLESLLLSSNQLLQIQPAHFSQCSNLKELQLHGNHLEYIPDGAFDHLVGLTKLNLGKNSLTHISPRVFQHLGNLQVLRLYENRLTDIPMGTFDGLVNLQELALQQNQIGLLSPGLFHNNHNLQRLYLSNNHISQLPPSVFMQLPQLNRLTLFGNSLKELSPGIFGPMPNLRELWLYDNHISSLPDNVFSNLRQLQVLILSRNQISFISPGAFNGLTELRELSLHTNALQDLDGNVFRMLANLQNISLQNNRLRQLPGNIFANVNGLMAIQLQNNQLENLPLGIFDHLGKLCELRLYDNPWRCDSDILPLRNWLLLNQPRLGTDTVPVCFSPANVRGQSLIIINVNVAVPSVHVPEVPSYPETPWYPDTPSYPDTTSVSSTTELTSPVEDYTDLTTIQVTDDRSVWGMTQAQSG
The assay can be described thus: BLI; dissociation pH 7.4 black, pH 5.4 grey [D00010 FIG. 1H]. The source says: For each individual plot, antigen binding proteins were captured on anti-human Fc biosensors and associated with LRRC15 at pH 7.4. Dissociation was at pH 7.4 (black) or pH 5.4 (grey). Major X-axis ticks=100 seconds, with left dashed vertical line=0 seconds. Major Y-axis ticks=0.5 nm and octet plots are shown MYT5712 and MYT6080-MYT6121.
Multiple LRRC15-binding monoclonal antibodies have been described in the literature and can be used as a template for engineering pH-dependent binding. We selected discovery RabMAb clone 15G7 (rabbit VH SEQ ID NO: 378, rabbit VL SEQ ID NO: 451; humanized VH SEQ ID NO: 382, humanized VL SEQ ID NO: 455) as a LRRC15-binding monoclonal antibody for pH-engineering via histidine scanning. […] To generate pH-dependent sequence variants, individual amino acid residues within the heavy chain CDRs were systematically substituted with a histidine (or alanine if H was already present in a given position; e.g., MYT6099), one at a time (rabbit, MYT6080-6121). Desirable mutations were transferred to a humanized framework (humanized, MYT 8387-8411). After allowing for four days of protein expression, cell culture supernatants were collected, quantified by SDS-PAGE analysis, and the pH dependence of the variant was evaluated using biolayer interferometry (BLI) on an Octet RED 96e instrument. Briefly, cell culture supernatants were diluted based on qualitative expression level of the variant determined by visual examination of SDS-PAGE gels, 5 μL of cell culture supernatant was diluted into 195 μL of 1×PBST, pH 7.4 for high expressors, 25 μL of cell culture supernatant was diluted into 175 μL of 1×PBST, pH 7.4 for medium expressors and 100 μL of cell culture supernatant was diluted into 100 μL of 1×PBST, pH 7.4 for low expressors for loading onto the sensor tips.
In general terms: Biolayer interferometry detects binding as a change in optical thickness at a sensor tip.
B1: the binding result is recorded as “binds”.

Take B2: the binding result is given as “binds”.

Take B3: the binding result is reported as “no binding (tested: 50 nM LRRC15)”.

B4: the binding result is given as “binds”.

Regarding B5, the binding result is given as “binds”.

For the molecule B6, the binding result is given as “no binding (tested: 50 nM LRRC15)”.

Turning to B7, the binding result is “binds”.

As to B8, the binding result was “no binding (tested: 50 nM LRRC15)”.

Turning to B9, the binding result is given as “binds”.

For the molecule B10, the binding result is “no binding (tested: 50 nM LRRC15)”.

Regarding B11, the binding result is given as “no binding (tested: 50 nM LRRC15)”.

Turning to B12, the binding result is reported as “binds”.

As to B13, the binding result was “binds”.

On to B14, for which the binding result was “binds”.

B15: the binding result is recorded as “binds”.

Consider B16, for which the binding result was “binds”.
